Reference: US6713606

Target: T1, purified human Lysn-Plasminogen, P00747
T1 chain: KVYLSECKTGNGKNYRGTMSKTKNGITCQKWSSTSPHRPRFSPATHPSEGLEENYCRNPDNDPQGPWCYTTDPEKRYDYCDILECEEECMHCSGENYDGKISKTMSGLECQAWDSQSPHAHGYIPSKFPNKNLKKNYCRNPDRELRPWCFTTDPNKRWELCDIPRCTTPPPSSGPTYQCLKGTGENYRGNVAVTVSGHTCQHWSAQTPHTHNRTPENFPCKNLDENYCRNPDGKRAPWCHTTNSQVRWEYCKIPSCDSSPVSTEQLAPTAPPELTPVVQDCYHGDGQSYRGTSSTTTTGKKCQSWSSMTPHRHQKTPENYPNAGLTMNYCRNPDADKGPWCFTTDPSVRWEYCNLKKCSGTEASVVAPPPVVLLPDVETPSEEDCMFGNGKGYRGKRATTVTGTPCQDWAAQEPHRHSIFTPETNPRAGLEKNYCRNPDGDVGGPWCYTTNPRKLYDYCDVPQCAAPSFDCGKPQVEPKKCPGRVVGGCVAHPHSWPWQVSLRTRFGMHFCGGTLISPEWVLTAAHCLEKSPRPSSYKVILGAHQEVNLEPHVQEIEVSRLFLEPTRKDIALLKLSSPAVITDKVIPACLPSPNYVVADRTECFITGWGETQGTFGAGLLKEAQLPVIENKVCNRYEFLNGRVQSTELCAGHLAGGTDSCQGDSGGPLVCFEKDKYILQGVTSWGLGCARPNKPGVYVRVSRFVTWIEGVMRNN

B1: thiolated streptokinase (protein)
chain: IAGPEWLLDRPSVNNSQLVVSVAGTVEGTNQDISLKFFEIDLTSRPAHGGKTEQGLSPKSKPFATDSGAMSHKLEKADLLKAIQEQLIANVHSNDDYFEVIDFASDATITDRNGKVYFADKDGSVTLPTQPVQEFLLSGHVRVRPYKEKPIQNQAKSVDVEYTVQFTPLNPDDDFRPGLKDTKLLKTLAIGDTITSQELLAQAQSILNKNHPGYTIYERDSSIVTHDNDIFRTILPMDQEFTYRVKNREQAYRINKKSGLNEEINNTDLISEKYYVLKKGEKPYDPFDRSHLKLFTIKYVDVDTNELLKSEQLLTASERNLDFRDLYDPRDKAKLLYNNLDAFGIMDYTLTGKVEDNHDDTNRIITVYMGKRPEGENASYHLAYDKDRYTEEEREVYSYLRYTGTPIPDNPNDK
plasmin generation in the plasminogen activation assay (S-2251 substrate units): thiolated SK (1 nM), generated plasmin at a nearly linear of 4225 SU/ml
